T1: human CD7 (human, UniProt P09564 26-180, limits assumed)
T1 construct: The construct is not described
T1 sequence (looked up): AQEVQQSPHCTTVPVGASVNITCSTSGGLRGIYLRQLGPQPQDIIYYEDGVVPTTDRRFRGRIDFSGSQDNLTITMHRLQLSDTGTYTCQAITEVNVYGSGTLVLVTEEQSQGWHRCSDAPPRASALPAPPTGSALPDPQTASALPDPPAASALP


Assays:
human CD7 [1] = biological target: T1, human CD7; test: SPR (Kd); value of the CD7 arm 7-PP-1 WT
human CD33 [2] = biological target: T2, human CD33 (human, UniProt P20138 18-259, limits assumed); test: SPR (Kd); value of the CD33 arm 33-PP-1 WT
T2 construct: The construct is not described
T2 sequence (P20138 18-259 limits assumed): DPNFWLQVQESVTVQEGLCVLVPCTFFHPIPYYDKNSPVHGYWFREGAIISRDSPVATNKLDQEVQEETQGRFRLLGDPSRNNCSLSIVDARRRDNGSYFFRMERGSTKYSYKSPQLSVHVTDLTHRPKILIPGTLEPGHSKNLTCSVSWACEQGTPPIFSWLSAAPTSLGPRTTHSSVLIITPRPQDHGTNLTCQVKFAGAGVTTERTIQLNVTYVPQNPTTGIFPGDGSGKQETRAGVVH

human CD33 [3] = biological target: T2, human CD33; test: SPR
human CD33 on cells = biological target: T3, human CD33 on cells (human, UniProt P20138 18-364); test: FACS; cells not named
T3 construct: whole, on cells; also called CD33+ cells; MV4.11 (CD7-/CD33+)
T3 sequence (P20138 18-364): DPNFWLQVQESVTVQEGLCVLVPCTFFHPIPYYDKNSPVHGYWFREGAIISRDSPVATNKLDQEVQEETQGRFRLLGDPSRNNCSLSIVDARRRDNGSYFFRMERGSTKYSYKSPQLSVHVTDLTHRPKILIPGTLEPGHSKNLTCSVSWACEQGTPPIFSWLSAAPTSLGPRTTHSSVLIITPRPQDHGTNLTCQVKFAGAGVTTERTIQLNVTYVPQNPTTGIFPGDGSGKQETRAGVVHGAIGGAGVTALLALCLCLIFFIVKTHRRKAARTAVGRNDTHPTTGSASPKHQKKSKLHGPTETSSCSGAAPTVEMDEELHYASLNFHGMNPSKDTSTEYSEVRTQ

human CD7 [4] = biological target: T1, human CD7; test: SPR (Kd); value of the CD7 arm 7-PP-8
human CD7 [5] = biological target: T1, human CD7; test: SPR (Kd); value of the CD7 arm 7-PP-13
human CD33 [6] = biological target: T2, human CD33; test: SPR (Kd); value of the CD33 arm 33-PP-7

Binder | Fold reduction in binding affinity vs 7-PP-1 WT (human CD7 [1]) [fold] | Fold reduction in binding affinity vs 33-PP-1 WT (human CD33 [2]) [fold] | Fold reduction in binding affinity vs 7-PP-1 WT (human CD7 [5]) [fold] | Fold reduction in binding affinity vs 33-PP-1 WT (human CD33 [6]) [fold] | further results
BVX100 (bispecific antibody, also called CD33-PP-1 WT/CD7-PP-1 WT) heavy: QVQLQESGAELVKPGASVKLSCKASGYTFTSYWMHWVKQRPGQGLEWIGKINPSNGRTNYNEKFKSKATLTVDKSSSTAYMQLSSLTSEDSAVYYCARGGVYYDLYYYALDYWGQGTTVTVSSASTKGPSVFPLAPSSKSTSGGTAALGCLVKDYFPEPVTVSWNSGALTSGVHTFPAVLQSSGLYSLSSVVTVPSSSLGTQTYCCNVNHKPSNTKVDKKVEPKSCDKT light: DIELTQSPATLSVTPGDSVSLSCRASQSISNNLHWYQQKSHESPRLLIKSASQSISGIPSRFSGSGSGTDFTLSINSVETEDFGMYFCQQSNSWPYTFGGGTKLEIKRTVAAPSVFIFPPSDEQLKSGTASVVCLLNNFYPREAKVQWKVDNALQSGNSQESVTEQDSKDSTYSLSSTLTLSKADYEKHKVYACEVTHQGLSSPVTKSFNRGEC VH: EVQLVQSGAEVKKPGSSVKVSCKASGYTITDSNIHWVRQAPGQSLEWIGYIYPYNGGTDYNQKFKNRATLTVDNPTNTAYMELSSLRSEDTAFYYCVNGNPWLAYWGQGTLVTVSS VL: DIQLTQSPSTLSASVGDRVTIICRASESLDNYGIRFLTWFQQKPGKAPKLLMYAASNQGSGVPSRFSGSGSGTEFTLTISSLQPDDFATYYCQQTKEVPWSFGQGTKLEIK | 0 | 0 |  |  | 
CD33-PP-1-WT binding arm (Fab, V domains shown) VH: EVQLVQSGAEVKKPGSSVKVSCKASGYTITDSNIHWVRQAPGQSLEWIGYIYPYNGGTDYNQKFKNRATLTVDNPTNTAYMELSSLRSEDTAFYYCVNGNPWLAYWGQGTLVTVSS VL: DIQLTQSPSTLSASVGDRVTIICRASESLDNYGIRFLTWFQQKPGKAPKLLMYAASNQGSGVPSRFSGSGSGTEFTLTISSLQPDDFATYYCQQTKEVPWSFGQGTKLEIK |  |  |  |  | Kd (human CD33 [3]): 1.36 nM; FACS binding (human CD33 on cells): 0.16 nM
BVX150 (bispecific antibody, bi-Fab; also called CD33-PP-1 WT/CD7-PP-8) heavy: QVQLQESGAELVKPGASVKLSCKASGYTFTSYWMHWVKQRPGQGLEWIGKINPSNGKTNYNEKFKSKATLTVDKSSSTAYMQLSSLTSEDSAVYYCARGGVYYDLYYAALDYWGQGTTVTVSSASTKGPSVFPLAPSSKSTSGGTAALGCLVKDYFPEPVTVSWNSGALTSGVHTFPAVLQSSGLYSLSSVVTVPSSSLGTQTYCCNVNHKPSNTKVDKKVEPKSCDKT light: DIELTQSPATLSVTPGDSVSLSCRASQSISNNLHWYQQKSHESPRLLIKSASQSISGIPSRFSGSGSGTDFTLSINSVETEDFGMYFCQQSNSWPYTFGGGTKLEIKRTVAAPSVFIFPPSDEQLKSGTASVVCLLNNFYPREAKVQWKVDNALQSGNSQESVTEQDSKDSTYSLSSTLTLSKADYEKHKVYACEVTHQGLSSPVTKSFNRGEC VH: EVQLVQSGAEVKKPGSSVKVSCKASGYTITDSNIHWVRQAPGQSLEWIGYIYPYNGGTDYNQKFKNRATLTVDNPTNTAYMELSSLRSEDTAFYYCVNGNPWLAYWGQGTLVTVSS VL: DIQLTQSPSTLSASVGDRVTIICRASESLDNYGIRFLTWFQQKPGKAPKLLMYAASNQGSGVPSRFSGSGSGTEFTLTISSLQPDDFATYYCQQTKEVPWSFGQGTKLEIK |  | 0 |  |  | Fold reduction in binding affinity vs 7-PP-1 WT (human CD7 [4]): 64.3 fold
BVX102 (bispecific antibody, bi-Fab; also called CD33-PP-7/CD7-PP-1 WT) heavy: QVQLQESGAELVKPGASVKLSCKASGYTFTSYWMHWVKQRPGQGLEWIGKINPSNGRTNYNEKFKSKATLTVDKSSSTAYMQLSSLTSEDSAVYYCARGGVYYDLYYYALDYWGQGTTVTVSSASTKGPSVFPLAPSSKSTSGGTAALGCLVKDYFPEPVTVSWNSGALTSGVHTFPAVLQSSGLYSLSSVVTVPSSSLGTQTYCCNVNHKPSNTKVDKKVEPKSCDKT light: DIELTQSPATLSVTPGDSVSLSCRASQSISNNLHWYQQKSHESPRLLIKSASQSISGIPSRFSGSGSGTDFTLSINSVETEDFGMYFCQQSNSWPYTFGGGTKLEIKRTVAAPSVFIFPPSDEQLKSGTASVVCLLNNFYPREAKVQWKVDNALQSGNSQESVTEQDSKDSTYSLSSTLTLSKADYEKHKVYACEVTHQGLSSPVTKSFNRGEC VH: EVQLVQSGAEVKKPGSSVKVSCKASGYTITDSNIHWVRQAPGQSLEWIGYIYPYNGGTDYNQKFKNRATLTVDNPTNTAYMELSSLRSEDTAFYYCVNGNPYLAAWGQGTLVTVSS VL: DIQLTQSPSTLSASVGDRVTIICRASESLDNYGIRFLTWFQQKPGKAPKLLMYAASNQGSGVPSRFSGSGSGTEFTLTISSLQPDDFATYYCQQTKEVPWSFGQGTKLEIK | 0 |  |  | 68 | 

The next lines start with results.

Fold reduction in binding affinity vs 7-PP-1 WT (human CD7 [1]) [fold] | Fold reduction in binding affinity vs 33-PP-1 WT (human CD33 [2]) [fold] | Fold reduction in binding affinity vs 7-PP-1 WT (human CD7 [5]) [fold] | Fold reduction in binding affinity vs 33-PP-1 WT (human CD33 [6]) [fold] | Binder | further results
 |  | 20.3 | 68 | BVX162 (bispecific antibody, bi-Fab; also called CD33-PP-7/CD7-PP-13) heavy: QVQLQESGAELVKPGASVKLSCKASGYTFTSYWMHWVKQRPGQGLEWIGKINPSNGRTNYNEKFKSKATLTVDKSSSTAYMQLSSLTSEDSAVYYCARGGVYYDLYYAALDYWGQGTTVTVSSASTKGPSVFPLAPSSKSTSGGTAALGCLVKDYFPEPVTVSWNSGALTSGVHTFPAVLQSSGLYSLSSVVTVPSSSLGTQTYCCNVNHKPSNTKVDKKVEPKSCDKT light: DIELTQSPATLSVTPGDSVSLSCRASQSISNNLHWYQQKSHESPRLLIKSASQSISGIPSRFSGSGSGTDFTLSINSVETEDFGMYFCQQSNSWPYTFGGGTKLEIKRTVAAPSVFIFPPSDEQLKSGTASVVCLLNNFYPREAKVQWKVDNALQSGNSQESVTEQDSKDSTYSLSSTLTLSKADYEKHKVYACEVTHQGLSSPVTKSFNRGEC VH: EVQLVQSGAEVKKPGSSVKVSCKASGYTITDSNIHWVRQAPGQSLEWIGYIYPYNGGTDYNQKFKNRATLTVDNPTNTAYMELSSLRSEDTAFYYCVNGNPYLAAWGQGTLVTVSS VL: DIQLTQSPSTLSASVGDRVTIICRASESLDNYGIRFLTWFQQKPGKAPKLLMYAASNQGSGVPSRFSGSGSGTEFTLTISSLQPDDFATYYCQQTKEVPWSFGQGTKLEIK | 
 | 0 | 20.3 |  | BVX160 (bispecific antibody, bi-Fab; also called CD33-PP-1 WT/CD7-PP-13) heavy: QVQLQESGAELVKPGASVKLSCKASGYTFTSYWMHWVKQRPGQGLEWIGKINPSNGRTNYNEKFKSKATLTVDKSSSTAYMQLSSLTSEDSAVYYCARGGVYYDLYYAALDYWGQGTTVTVSSASTKGPSVFPLAPSSKSTSGGTAALGCLVKDYFPEPVTVSWNSGALTSGVHTFPAVLQSSGLYSLSSVVTVPSSSLGTQTYCCNVNHKPSNTKVDKKVEPKSCDKT light: DIELTQSPATLSVTPGDSVSLSCRASQSISNNLHWYQQKSHESPRLLIKSASQSISGIPSRFSGSGSGTDFTLSINSVETEDFGMYFCQQSNSWPYTFGGGTKLEIKRTVAAPSVFIFPPSDEQLKSGTASVVCLLNNFYPREAKVQWKVDNALQSGNSQESVTEQDSKDSTYSLSSTLTLSKADYEKHKVYACEVTHQGLSSPVTKSFNRGEC VH: EVQLVQSGAEVKKPGSSVKVSCKASGYTITDSNIHWVRQAPGQSLEWIGYIYPYNGGTDYNQKFKNRATLTVDNPTNTAYMELSSLRSEDTAFYYCVNGNPWLAYWGQGTLVTVSS VL: DIQLTQSPSTLSASVGDRVTIICRASESLDNYGIRFLTWFQQKPGKAPKLLMYAASNQGSGVPSRFSGSGSGTEFTLTISSLQPDDFATYYCQQTKEVPWSFGQGTKLEIK | 
